Test [1] addresses T1, anti-DENV E protein antibody comprising a modified IgG heavy chain constant region (SEQ ID NO: 116).
T1 construct: also called anti-DENY E protein antibody; Fc-Mutated Antibody
As to the kind of experiment: SPR (Biacore T200), 25 C, pH 7.4; SKA antibody captured by anti-rabbit IgG, anti-DENV E protein antibody injected 0-400 nM. An excerpt: (§1) Anti-rabbit IgG was immobilized onto FC 3 and 4 of a CMS sensor chip using an amine coupling kit (GE Healthcare). For the immobilization of anti-rabbit IgG, HBS-EP+, pH7.4 (GE Healthcare) buffer was used as running buffer. After the immobilization, running buffer was changed to phosphate pH7.4 buffer. Each antibody was captured onto FC4 of the sensor chip by anti-rabbit IgG. The amount of Anti Fc-Mutation Antibody to be captured was adjusted so that the number of resonance units (RU) was 100.

In test [2] the target is T1, anti-DENV E protein antibody comprising …. The test is described as follows: SPR (Biacore T200), 25 C, pH 7.4; SKA antibody captured by anti-rabbit IgG, anti-DENV E protein antibody injected 0-400 nM; *reliability might be low.
From the text: as §1
In general terms: Surface plasmon resonance follows binding to a sensor surface in real time, without labels.

T1 sequence (constant, as listed by the source limits assumed): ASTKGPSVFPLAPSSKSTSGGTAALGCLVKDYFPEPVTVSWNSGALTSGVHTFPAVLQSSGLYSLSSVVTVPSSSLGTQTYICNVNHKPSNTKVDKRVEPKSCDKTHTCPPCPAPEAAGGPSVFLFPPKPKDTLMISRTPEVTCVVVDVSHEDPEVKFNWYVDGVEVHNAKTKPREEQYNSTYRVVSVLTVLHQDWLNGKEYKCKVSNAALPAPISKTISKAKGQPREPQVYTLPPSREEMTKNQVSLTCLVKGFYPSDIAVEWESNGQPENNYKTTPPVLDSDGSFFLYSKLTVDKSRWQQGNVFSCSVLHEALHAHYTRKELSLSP

B1: SKA0171 (antibody, V domains shown)
VH: QSLEESGGGLVQPEGSLTLSCTASGFSFSSSYYMCWVRQAPGKGLEWIACIYGGNSVITYYANWAKGRFTISETSSTTVTLQMTSLTAADTATYFCAREVHYDYLYTTYGYANLWGPGTLVTVSS
VL: AIKMTQTPASVSAVVGGTVTINCQASETIYSGLAWYQQKPGQPPKLLIYDTANLETGVSSRFKGSGSGTEYTLTISDLECDDAATYFCLYAYYSGGSADNAFGGGTEVVVKG
notes: Recombinant rabbit monoclonal from B-cell cloning, expressed in FreeStyle 293-F cells; the first screen used B-cell culture supernatant; also called Anti-SG115 Antibody; rabbit Anti Fc-Mutation Antibody
Take B1: in test [1], the Kd (in general, the free concentration of one partner at which half of the binding sites on the other are occupied at equilibrium, for simple one-to-one binding) is 1.45 nM; the koff (commonly the rate constant with which the complex falls apart) came out at 0.00149 s⁻¹; the kon – broadly, a measure of how fast the partners come together – was 1.02e+06 M⁻¹ s⁻¹.

B2: SKA0027 (antibody, V domains shown)
VH: QEQLVESGGGLVQPEGSLTLTCTASGFSFSSSDYMCWVRQAPGKGLEWIGCIYTGSGSTYYASWAKGRFTISKTSSTTVTLQMTSLTAADTATFFCARRGDSYSNYSFKLWGPGTLVTVSS
VL: AFELTQTPASVEAAVGGTVTIKCQASQNIYSNLAWYQQKPGQPPKLLIYTASSLASGVSSRFKGSGSGTEFTLTISDLECDDAATYYCQCTYINNGYGNTFGGGTEVVVKG
notes: as for B1
For B2, in test [1], the affinity, expressed as Kd, was 1 nM; the koff came to 0.000191 s⁻¹; the kon is 190000 M⁻¹ s⁻¹.

B3: SKA0001 (antibody, V domains shown)
VH: QSVEESGGRLVTPGTPLTLTCTVSGFSLSYYAMNWVRQAPGKGLEWIGIIGISGGTYYASWAKGRFTISKSSSTTVDLKMTSPTTEDTATYFCARGGSAWGDLWGQGTLVTVSS
VL: DIVMTQTPSSVSAAVGGTVTINCQASQSISRLLAWYQQKPGQPPKVLMHDASDLASGVPSRFKGSGSGTEYTLTISDLECADAATYYCQSYYWGSSGDIGYPFGGGTEVVVKG
notes: as for B1
Regarding B3, the on-rate constant (kon) in test [1] was 44400 M⁻¹ s⁻¹. In test [2], this molecule showed a Kd of 0.00278 nM and a koff of 1.23e-07 s⁻¹.

B4: SKA0028 (antibody, V domains shown)
VH: QSVEESGGRLVTPGTPLTLTCTASGFTISSYHMSWVRQAPGKGLEWIGIIHGSGNMWYASWAKGRFTISRTSTTVDLEITSPTTEDTATYFCARIRFWASSNYYYFYLWGQGTLVTVSS
VL: ALVMTQTPASVSEPVGGTVTINCQASQNIYSNLAWYQQKPGQRPRLLIYGASNLESGVPSRFRGSGSGTEFTLTISDLECADAATYYCQSAYWGNNNDGAFGGGTEVVVKG
notes: as for B1
For the molecule B4, in test [1], the koff worked out at 7.27e-05 s⁻¹ and the kon was 116000 M⁻¹ s⁻¹. The Kd in test [2] came to 0.626 nM.

B5: SKA0117 (antibody, V domains shown)
VH: QSLEESGGDLVKPEGSLTLTCTASGFSFSSSHYMCWVRQAPGKGLEWIACIYAGSSDNTYYASWAKGRFTISKTSSTTVTLQMTSLTAADTATYFCARDTYGYVGYASAGGFFNLWGPGTLVTVSS
VL: ALVMTQTPASVSAAVGGTVTINCQASHNIYSVLAWYQQKPGQRPRLLIYGASNLESGVPSRFKGSGSGTEYTLTISDLECDDAATYYCQSAYYSSSTGDNAFGGGTEVVVKG
notes: as for B1
Turning to B5, the kon in test [1] amounted to 126000 M⁻¹ s⁻¹. In test [2], the equilibrium dissociation constant (Kd) is 0.000275 nM and the koff was determined as 3.46e-08 s⁻¹.

B6: SKA0141 (antibody, V domains shown)
VH: QSLEESGGDLVKPGASLTLTCTASGFSFSSSYYMCWVRQAPGKGLEWIACIYAGSSGSTYYASWAKGRFTISKTSSTTVTLQMTSLTAADTATYFCARDGDENMLVGGYFNLWGPGTLVTVSS
VL: ALVMTQTPSSVSAAVGGTVTINCQASHNIYSNLAWYQQKPGQRPKLLIYGASNLESGVPSRFKGSGSGTEYTLTISDLECDDAATYYCQSAYYSSNAGYNAFGGGTEVVVKG
notes: as for B1
For B6, in test [1], the Kd was 5.04 nM, the koff is 0.00135 s⁻¹ and the kon turned out to be 267000 M⁻¹ s⁻¹.

For the origin of these results see patent US20220195070A1 (Chugai, published 2022).
